In patent US20190040115A1 (IMMATICS BIOTECHNOLOGIES, published 2019):

target: T1, HLA-A*02:01 (human); assay: UV peptide exchange ELISA (anti-b2m); yield grade: + >10%, ++ >20%, +++ >50, ++++ >75%
T1 construct: captured on streptavidin plates; also called peptide-receptive MHC molecules
From the text: Candidate peptides for T cell based therapies according to the present invention were further tested for their MHC binding capacity (affinity). The individual peptide-MHC complexes were produced by UV-ligand exchange, where a UV-sensitive peptide is cleaved upon UV-irradiation, and exchanged with the peptide of interest as analyzed. Only peptide candidates that can effectively bind and stabilize the peptide-receptive MHC molecules prevent dissociation of the MHC complexes. To determine the yield of the exchange reaction, an ELISA was performed based on the detection of the light chain (β2m) of stabilized MHC complexes. The assay was performed as generally described in Rodenko et al. (Rodenko et al., 2006).
96 well MAXISorp plates (NUNC) were coated over night with 2 ug/ml streptavidin in PBS at room temperature, washed 4× and blocked for 1 h at 37° C. in 2% BSA containing blocking buffer. Refolded HLA-A*02:01/MLA-001 monomers served as standards, covering the range of 15-500 ng/ml. Peptide-MHC monomers of the UV-exchange reaction were diluted 100 fold in blocking buffer. Samples were incubated for 1 h at 37° C., washed four times, incubated with 2 ug/ml HRP conjugated anti-β2m for 1 h at 37° C., washed again and detected with TMB solution that is stopped with […]. Absorption was measured at 450 nm. Candidate peptides that show a high exchange yield (preferably higher than 50%, most preferred higher than 75%) are generally preferred for a generation and production of antibodies or fragments thereof, and/or T cell receptors or fragments thereof, as they show sufficient avidity to the MHC molecules and prevent dissociation of the MHC complexes.

Row | Binder | peptide exchange yield
1 | SLIDFVVTC | 50 to 75%
2 | VLPAVLTRL | 50 to 75%
3 | SLKQTVVTL | 50 to 75%
4 | FLDASGAKL | > 75%
5 | FLDDQETRL | 50 to 75%
6 | LLDEVLHTM | > 75%
7 | KMTQYITEL | > 75%
8 | LMDETMKEL | > 75%
9 | FVDGSAIQV | 50 to 75%
10 | YIDDVFMGL | 50 to 75%
11 | TLPNIYVTL | 50 to 75%
12 | GVGPVPARA | 50 to 75%
13 | TVIRPLPGL | 20 to 50%
14 | QLMEGKVVL | > 75%
15 | ILPSNLLTV | 50 to 75%
16 | IQSETTVTV | > 75%
17 | VIDDLIQKL | 20 to 50%
18 | LLGEGIPSA | > 75%

Row | Binder | peptide exchange yield
19 | ALFPGDVDRL | 50 to 75%
20 | GLVDVLYTA | 50 to 75%
21 | SVDEVEISV | 50 to 75%
22 | TMIEICEKL | > 75%
23 | YVDDFGVSV | 50 to 75%
24 | YLFAFLNHL | > 75%
25 | SLDQIIQHL | 50 to 75%
26 | YLDKTFYNL | 50 to 75%
27 | RLDDKTTNV | 50 to 75%
28 | VLDVSFNRL | 50 to 75%
29 | SLGLGFISRV | 50 to 75%
30 | ILDDQTNKL | 50 to 75%
31 | KQQASQVLV | 50 to 75%
32 | NVDENVAEL | 20 to 50%
33 | TLVAFLQQV | > 75%
34 | VLYEMLYGL | > 75%
35 | RLEAYLARV | 50 to 75%

Results, then the binder that gave them:

Row | peptide exchange yield | Binder
36 | 50 to 75% | SLDAVMPHL
37 | 50 to 75% | VLYSLVSKI
38 | 50 to 75% | ALDPAYTTL
39 | 50 to 75% | AVDATVNQV
40 | > 75% | TLIELLLPKL
41 | 50 to 75% | VLDTLTKVL
42 | 50 to 75% | NLREILQNV
43 | > 75% | FLPQKIIYL
44 | > 75% | FLEDLVPYL
45 | 20 to 50% | VVDDIVSKL
46 | 50 to 75% | RLPDQFSKL
47 | 50 to 75% | YVIDPIKGL
48 | > 75% | ILDDSALYL
49 | 50 to 75% | FVDPNGKISL
50 | 50 to 75% | TLISDIEAVKA
51 | 50 to 75% | VLPDDLSGV
52 | 50 to 75% | FAYDGKDYIAL
53 | > 75% | FLDVKELML
54 | > 75% | TLSEICEFI
